Data reported in patent US20250121064A1 (CARSGEN LIFE SCIENCES, published 2025).

Biological target: T1, human GPRC5D on cells (human, UniProt Q9NZD1 1-345)
T1 construct: MM.1S and NCI-H929 cells express it endogenously; also called huGPRC5D; CHOK1-huGPRC5D
Experiment: flow cytometry on CHOK1-huGPRC5D cells

T1 sequence (Q9NZD1 whole entry): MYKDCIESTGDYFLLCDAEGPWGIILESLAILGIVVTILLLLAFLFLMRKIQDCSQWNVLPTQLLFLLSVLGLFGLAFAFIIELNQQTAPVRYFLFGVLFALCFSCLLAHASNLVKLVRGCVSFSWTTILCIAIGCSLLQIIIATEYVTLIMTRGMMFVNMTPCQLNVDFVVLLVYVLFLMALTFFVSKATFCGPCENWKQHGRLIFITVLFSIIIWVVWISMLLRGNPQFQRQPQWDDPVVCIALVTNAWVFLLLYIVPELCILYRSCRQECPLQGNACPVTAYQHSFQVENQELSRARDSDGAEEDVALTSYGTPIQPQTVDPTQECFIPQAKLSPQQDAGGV

Binder | EC50 [nM]
hybridoma antibody AB1 (IgG2b-k) (antibody, V domains shown, Mouse hybridoma mIgG, IgG2b kappa) VH: EVQLQQSGPEVVKPGASMKISCKASGYSFTGYTMNWVKQSHGKNFEWIGLINPYNGGTSYNQKFKGKATLTVDKSSSTAYMELLSLTSEDSAVYYCTRGGFRAWFAFWGQGTLVTVSA VL: DIQMTQSPSSLSASLGERVSLTCRASQDIGSNLNWLQQEPDGTIKRLIYATSILDSGVPKRFSGSRSGSDYSLTISSLESEDFVDYYCLQYATFPNTFGGGTKLEIKR | 1.69
hybridoma antibody AB2 (IgG3-k) (antibody, V domains shown, Mouse hybridoma mIgG, IgG3 kappa) VH: VVKLVESGGGLVQPGGSLKLSCAASGFTFSNYGMSWVRQTPDTRLELVATINSNGGNTYYPDSVKGRFTISRDNAKNTLYLQMSSLKSEDTAIYYCVRAYSLTMDYWGQGTSVTVSS VL: DVVMTQTPLSLPVSLGDQASISCRSSQSLVHSNGNTYLHWYLQKPGQSPKLLIYKVSNRFSGVPDRFSGSGSGTDFTLKIIRVEAEDLGVYFCSQSTHVPPTFRAGTKLELKR | 1.93
